One assay has as its system 3×MBT domain of L3MBTL1. Nature of the assay: Triple SILAC pull-down, 3xMBT/3xMBTD355N ratio (cytoplasmic, nuclear and chromatin fractions of 293T cells).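 On all read-outs here: proteins quantified with MaxQuant, requiring at least two unique peptides and quantification in both label directions, normalized to the mean of proteins from a digested loading control.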 Conditions: SILAC ratio, pull-down 3xMBT vs 3xMBTD355N; for 3xMBT/D355N UNC Heavy: experiment with UNC0638 in heavy SILAC media; for 3xMBT/D355N UNC Light: experiment with UNC0638 in light SILAC media. It is filed as binding, human.

In another assay the target is T1, G9a and GLP (Homo sapiens, UniProt Q96KQ7+Q9H9B1).
T1 sequence (Q96KQ7 2-1210 limits assumed): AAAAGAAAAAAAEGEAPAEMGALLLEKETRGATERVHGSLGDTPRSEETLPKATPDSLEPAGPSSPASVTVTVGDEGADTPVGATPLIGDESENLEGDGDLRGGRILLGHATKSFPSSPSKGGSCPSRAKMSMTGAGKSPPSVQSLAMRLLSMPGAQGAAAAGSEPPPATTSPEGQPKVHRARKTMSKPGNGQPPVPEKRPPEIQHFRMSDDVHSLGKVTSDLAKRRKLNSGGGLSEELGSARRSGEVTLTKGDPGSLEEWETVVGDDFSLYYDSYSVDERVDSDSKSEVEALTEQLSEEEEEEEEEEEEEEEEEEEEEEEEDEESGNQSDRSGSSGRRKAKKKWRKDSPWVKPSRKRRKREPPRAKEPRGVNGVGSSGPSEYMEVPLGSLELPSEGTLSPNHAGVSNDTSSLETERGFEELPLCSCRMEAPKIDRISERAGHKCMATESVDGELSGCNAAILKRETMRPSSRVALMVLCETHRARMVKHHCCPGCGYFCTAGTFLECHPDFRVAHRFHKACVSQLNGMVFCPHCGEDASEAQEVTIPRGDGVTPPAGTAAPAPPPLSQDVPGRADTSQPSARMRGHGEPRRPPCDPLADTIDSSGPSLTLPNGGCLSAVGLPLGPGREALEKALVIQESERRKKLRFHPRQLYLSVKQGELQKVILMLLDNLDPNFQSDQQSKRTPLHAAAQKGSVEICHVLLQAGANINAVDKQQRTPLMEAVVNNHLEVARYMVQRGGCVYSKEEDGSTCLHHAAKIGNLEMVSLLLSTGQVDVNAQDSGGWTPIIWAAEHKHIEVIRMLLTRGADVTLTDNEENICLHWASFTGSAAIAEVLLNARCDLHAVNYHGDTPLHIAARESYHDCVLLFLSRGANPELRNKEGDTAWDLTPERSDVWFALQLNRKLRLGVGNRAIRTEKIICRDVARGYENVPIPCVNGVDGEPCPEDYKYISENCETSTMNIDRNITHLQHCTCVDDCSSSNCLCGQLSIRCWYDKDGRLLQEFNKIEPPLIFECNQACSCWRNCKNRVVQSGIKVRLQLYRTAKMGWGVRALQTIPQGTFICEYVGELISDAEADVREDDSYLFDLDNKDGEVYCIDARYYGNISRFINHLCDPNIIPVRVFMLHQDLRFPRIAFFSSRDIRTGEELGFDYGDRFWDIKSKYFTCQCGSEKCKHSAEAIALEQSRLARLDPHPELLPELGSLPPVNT
T1 sequence (Q9H9B1 2-1298 limits assumed): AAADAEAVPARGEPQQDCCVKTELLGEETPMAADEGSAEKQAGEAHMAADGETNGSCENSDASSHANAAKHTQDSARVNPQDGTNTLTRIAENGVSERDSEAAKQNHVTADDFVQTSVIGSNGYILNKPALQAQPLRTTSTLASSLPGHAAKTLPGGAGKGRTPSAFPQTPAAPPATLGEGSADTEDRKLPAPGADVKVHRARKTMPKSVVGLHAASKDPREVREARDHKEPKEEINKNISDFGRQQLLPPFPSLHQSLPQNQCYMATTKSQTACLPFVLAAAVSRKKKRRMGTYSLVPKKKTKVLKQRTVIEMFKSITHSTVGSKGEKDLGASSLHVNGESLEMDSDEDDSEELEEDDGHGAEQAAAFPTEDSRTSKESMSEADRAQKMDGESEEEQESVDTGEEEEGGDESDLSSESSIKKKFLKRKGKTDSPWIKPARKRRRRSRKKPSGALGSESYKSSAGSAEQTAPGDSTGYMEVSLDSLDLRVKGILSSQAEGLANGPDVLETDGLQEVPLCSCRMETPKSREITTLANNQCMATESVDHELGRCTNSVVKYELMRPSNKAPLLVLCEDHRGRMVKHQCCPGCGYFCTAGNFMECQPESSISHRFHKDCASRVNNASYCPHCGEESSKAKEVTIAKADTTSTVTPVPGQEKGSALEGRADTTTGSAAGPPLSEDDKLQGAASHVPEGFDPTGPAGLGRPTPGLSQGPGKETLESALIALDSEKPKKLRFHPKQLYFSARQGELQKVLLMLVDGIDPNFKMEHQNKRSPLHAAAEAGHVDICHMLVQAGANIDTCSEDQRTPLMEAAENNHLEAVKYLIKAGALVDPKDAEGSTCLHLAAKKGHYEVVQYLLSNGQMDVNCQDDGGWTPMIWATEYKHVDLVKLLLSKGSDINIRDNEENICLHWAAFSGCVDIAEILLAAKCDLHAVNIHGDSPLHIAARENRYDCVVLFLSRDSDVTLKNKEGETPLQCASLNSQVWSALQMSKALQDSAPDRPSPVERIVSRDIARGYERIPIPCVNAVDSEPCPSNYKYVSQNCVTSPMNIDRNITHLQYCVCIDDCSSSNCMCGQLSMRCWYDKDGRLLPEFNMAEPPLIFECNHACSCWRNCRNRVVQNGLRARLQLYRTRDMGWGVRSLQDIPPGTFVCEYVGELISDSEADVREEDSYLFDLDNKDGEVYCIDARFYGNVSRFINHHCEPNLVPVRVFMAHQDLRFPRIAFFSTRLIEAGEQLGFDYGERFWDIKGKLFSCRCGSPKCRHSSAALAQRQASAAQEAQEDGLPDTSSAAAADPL
Nature of the assay: Triple SILAC pull-down after UNC0638 treatment of 293T cells, DMSO/UNC0638 ratio of protein captured by 3×MBT.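 On all read-outs here: mass spectrometry (Q-Exactive) SILAC quantitation, DMSO/UNC0638 ratio computed after subtracting 3×MBTD355N mutant pull-down background, only proteins with at least twofold 3×MBT over mutant signal considered.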 It is filed as cell-based. The note with it: for Relative to UNC0638 UNC Heavy / Relative to UNC0638 UNC Light: SILAC ratio DMSO/UNC0638 of protein pulled down with 3xMBT; for Relative to UNC0638 UNC Heavy: UNC0638 in heavy SILAC media; for Relative to UNC0638 UNC Light: UNC0638 in light SILAC media; for Relative to UNC0638 Average: average of UNC Light and UNC Heavy experiments. Also noted: endogenous in cells; host or cells: HEK 293T.

B1: RRM1 (protein, UniProt P23921 1-792, looked up)
Ribonucleoside-diphosphate …: MHVIKRDGRQERVMFDKITSRIQKLCYGLNMDFVDPAQITMKVIQGLYSGVTTVELDTLAAETAATLTTKHPDYAILAARIAVSNLHKETKKVFSDVMEDLYNYINPHNGKHSPMVAKSTLDIVLANKDRLNSAIIYDRDFSYNYFGFKTLERSYLLKINGKVAERPQHMLMRVSVGIHKEDIDAAIETYNLLSERWFTHASPTLFNAGTNRPQLSSCFLLSMKDDSIEGIYDTLKQCALISKSAGGIGVAVSCIRATGSYIAGTNGNSNGLVPMLRVYNNTARYVDQGGNKRPGAFAIYLEPWHLDIFEFLDLKKNTGKEEQRARDLFFALWIPDLFMKRVETNQDWSLMCPNECPGLDEVWGEEFEKLYASYEKQGRVRKVVKAQQLWYAIIESQTETGTPYMLYKDSCNRKSNQQNLGTIKCSNLCTEIVEYTSKDEVAVCNLASLALNMYVTSEHTYDFKKLAEVTKVVVRNLNKIIDINYYPVPEACLSNKRHRPIGIGVQGLADAFILMRYPFESAEAQLLNKQIFETIYYGALEASCDLAKEQGPYETYEGSPVSKGILQYDMWNVTPTDLWDWKVLKEKIAKYGIRNSLLIAPMPTASTAQILGNNESIEPYTSNIYTRRVLSGEFQIVNPHLLKDLTERGLWHEEMKNQIIACNGSIQSIPEIPDDLKQLYKTVWEISQKTVLKMAAERGAFIDQSQSLNIHIAEPNYGKLTSMHFYGWKQGLKTGMYYLRTRPAANPIQFTLNKEKLKDKEKVSKEEEEKERNTAAMVCSLENRDECLMCGS
For B1, in the assay with 3×MBT domain of L3MBTL1, the “3xMBT/D355N UNC Heavy” value is recorded as 1.23 log base 2 and the “3xMBT/D355N UNC Light” value was determined as 0.94 log base 2. In addition, in the assay with G9a and GLP, the “Relative to UNC0638 UNC Heavy” value amounted to 0.96 log base 2, the “Relative to UNC0638 UNC Light” value is −0.22 log base 2 and the “Relative to UNC0638 Average” value was found to be 0.37 log base 2.

B2: PPP1R10 (protein, UniProt Q96QC0 1-940, looked up)
Serine/threonine-protein …: MGSGPIDPKELLKGLDSFLNRDGEVKSVDGISKIFSLMKEARKMVSRCTYLNILLQTRSPEILVKFIDVGGYKLLNNWLTYSKTTNNIPLLQQILLTLQHLPLTVDHLKQNNTAKLVKQLSKSSEDEELRKLASVLVSDWMAVIRSQSSTQPAEKDKKKRKDEGKSRTTLPERPLTEVKAETRAEEAPEKKREKPKSLRTTAPSHAKFRSTGLELETPSLVPVKKNASTVVVSDKYNLKPIPLKRQSNVAAPGDATPPAEKKYKPLNTTPNATKEIKVKIIPPQPMEGLGFLDALNSAPVPGIKIKKKKKVLSPTAAKPSPFEGKTSTEPSTAKPSSPEPAPPSEAMDADRPGTPVPPVEVPELMDTASLEPGALDAKPVESPGDPNQLTRKGRKRKSVTWPEEGKLREYFYFELDETERVNVNKIKDFGEAAKREILSDRHAFETARRLSHDNMEEKVPWVCPRPLVLPSPLVTPGSNSQERYIQAEREKGILQELFLNKESPHEPDPEPYEPIPPKLIPLDEECSMDETPYVETLEPGGSGGSPDGAGGSKLPPVLANLMGSMGAGKGPQGPGGGGINVQEILTSIMGSPNSHPSEELLKQPDYSDKIKQMLVPHGLLGPGPIANGFPPGGPGGPKGMQHFPPGPGGPMPGPHGGPGGPVGPRLLGPPPPPRGGDPFWDGPGDPMRGGPMRGGPGPGPGPYHRGRGGRGGNEPPPPPPPFRGARGGRSGGGPPNGRGGPGGGMVGGGGHRPHEGPGGGMGNSSGHRPHEGPGGGMGSGHRPHEGPGGSMGGGGGHRPHEGPGGGISGGSGHRPHEGPGGGMGAGGGHRPHEGPGGSMGGSGGHRPHEGPGHGGPHGHRPHDVPGHRGHDHRGPPPHEHRGHDGPGHGGGGHRGHDGGHSHGGDMSNRPVCRHFMMKGNCRYENNCAFYHPGVNGPPLP
On to B2, for which, in the assay on 3×MBT domain of L3MBTL1, the “3xMBT/D355N UNC Heavy” value was 4.73 log base 2 and the “3xMBT/D355N UNC Light” value was found to be 2.57 log base 2. Besides, in the assay with G9a and GLP, the “Relative to UNC0638 UNC Heavy” value was determined as 0.36 log base 2, the “Relative to UNC0638 UNC Light” value worked out at 0.37 log base 2 and the “Relative to UNC0638 Average” value came to 0.36 log base 2.

B3: SEPT7 (protein, UniProt Q16181 2-437, looked up)
Septin-7: SVSARSAAAEERSVNSSTMVAQQKNLEGYVGFANLPNQVYRKSVKRGFEFTLMVVGESGLGKSTLINSLFLTDLYSPEYPGPSHRIKKTVQVEQSKVLIKEGGVQLLLTIVDTPGFGDAVDNSNCWQPVIDYIDSKFEDYLNAESRVNRRQMPDNRVQCCLYFIAPSGHGLKPLDIEFMKRLHEKVNIIPLIAKADTLTPEECQQFKKQIMKEIQEHKIKIYEFPETDDEEENKLVKKIKDRLPLAVVGSNTIIEVNGKRVRGRQYPWGVAEVENGEHCDFTILRNMLIRTHMQDLKDVTNNVHYENYRSRKLAAVTYNGVDNNKNKGQLTKSPLAQMEEERREHVAKMKKMEMEMEQVFEMKVKEKVQKLKDSEAELQRRHEQMKKNLEAQHKELEEKRRQFEDEKANWEAQQRILEQQNSSRTLEKNKKKGKIF
In the case of B3, in the assay on 3×MBT domain of L3MBTL1, the “3xMBT/D355N UNC Heavy” value is recorded as 2.75 log base 2 and the “3xMBT/D355N UNC Light” value stood at 2.54 log base 2. In the assay with G9a and GLP, the “Relative to UNC0638 UNC Heavy” value came out at 0.50 log base 2, the “Relative to UNC0638 UNC Light” value stood at 0.26 log base 2 and the “Relative to UNC0638 Average” value is listed as 0.38 log base 2.

B4: SRP68 (protein, UniProt Q9UHB9 1-627, looked up)
Signal recognition particle …: MAAEKQVPGGGGGGGSGGGGGSGGGGSGGGRGAGGEENKENERPSAGSKANKEFGDSLSLEILQIIKESQQQHGLRHGDFQRYRGYCSRRQRRLRKTLNFKMGNRHKFTGKKVTEELLTDNRYLLLVLMDAERAWSYAMQLKQEANTEPRKRFHLLSRLRKAVKHAEELERLCESNRVDAKTKLEAQAYTAYLSGMLRFEHQEWKAAIEAFNKCKTIYEKLASAFTEEQAVLYNQRVEEISPNIRYCAYNIGDQSAINELMQMRLRSGGTEGLLAEKLEALITQTRAKQAATMSEVEWRGRTVPVKIDKVRIFLLGLADNEAAIVQAESEETKERLFESMLSECRDAIQVVREELKPDQKQRDYILEGEPGKVSNLQYLHSYLTYIKLSTAIKRNENMAKGLQRALLQQQPEDDSKRSPRPQDLIRLYDIILQNLVELLQLPGLEEDKAFQKEIGLKTLVFKAYRCFFIAQSYVLVKKWSEALVLYDRVLKYANEVNSDAGAFKNSLKDLPDVQELITQVRSEKCSLQAAAILDANDAHQTETSSSQVKDNKPLVERFETFCLDPSLVTKQANLVHFPPGFQPIPCKPLFFDLALNHVAFPPLEDKLEQKTKSGLTGYIKGIFGFRS
On to B4, for which, in the assay with 3×MBT domain of L3MBTL1, the “3xMBT/D355N UNC Heavy” value is reported as 2.41 log base 2 and the “3xMBT/D355N UNC Light” value was determined as 3.28 log base 2. For the same molecule, in the assay with G9a and GLP, the “Relative to UNC0638 UNC Heavy” value is on record as −0.08 log base 2, the “Relative to UNC0638 UNC Light” value worked out at 0.76 log base 2 and the “Relative to UNC0638 Average” value amounted to 0.34 log base 2.

These data come from US20140274782A1, “AFFINITY REAGENTS AND METHODS FOR DETECTION, PURIFICATION, AND PROTEOMIC ANALYSIS OF METHYLATED PROTEINS” (The Board of Trustees of the Leland Stanford Junior …, priority 2013, published 2014).
